± gives the uncertainty stated by the source.
B1: CD2-associated protein, residues 271 to 331; numbered along this chain, Q9Y5K6 (parent)
chain: KEYCRTLFAYEGTNEDELTFKEGEIIHLISKETGEAGWWRGELNGKEGVFPDNFAVQINEL

Variants of: B1
Test: abundance fitness (aPCA) (normalised: wild type 0, dead -1); higher = more abundant; growth selection in yeast, the domain comes from the species named
Settings: Homo sapiens

Variant	abundance fitness
N59P	-0.032 ± 0.13
N59M	-0.426 ± 0.12
N59G	-0.037 ± 0.087
N59H	-0.1 ± 0.12
F50C	-0.516 ± 0.16
E42S	-0.05 ± 0.073
E42I	-0.026 ± 0.1
E42A	0.006 ± 0.1
E42V	-0.159 ± 0.079
E42D	-0.298 ± 0.13
E17P	-1.12 ± 0.22
E17D	-0.213 ± 0.13
E17M	-0.362 ± 0.097
E17N	-0.755 ± 0.2
E17V	-0.497 ± 0.08
E17G	-0.58 ± 0.078
E17A	-0.233 ± 0.083
E17K	-0.619 ± 0.093
P51V	-0.974 ± 0.21
P51I	-0.49 ± 0.14
P51M	0.004 ± 0.11
P51R	-0.032 ± 0.05
E22V	-0.171 ± 0.082
E22M	-0.485 ± 0.087

Variant	abundance fitness
E22F	-1.02 ± 0.25
E22C	-0.4 ± 0.089
E22R	-0.209 ± 0.065
N53Q	-0.051 ± 0.092
N53I	-0.193 ± 0.054
N53M	-0.198 ± 0.09
N53P	-0.365 ± 0.084
N53S	0.012 ± 0.042
N53V	-0.185 ± 0.049
N53D	-0.094 ± 0.062
N53E	-0.036 ± 0.11
N53L	-0.133 ± 0.059
I25P	-0.794 ± 0.19
I25T	-0.175 ± 0.072
I25S	-0.448 ± 0.071
I25W	-0.75 ± 0.14
I25H	-0.448 ± 0.16
Q57D	-0.097 ± 0.14
Q57N	-0.077 ± 0.19
Q57T	-0.024 ± 0.066
Q57K	-0.188 ± 0.074
Q57F	-0.295 ± 0.18
Q57V	-0.058 ± 0.048
K31A	-0.635 ± 0.11

Variant	abundance fitness
K31T	-0.024 ± 0.062
K31S	-0.571 ± 0.068
K31E	-0.111 ± 0.49
K31R	0.017 ± 0.089
K31W	-0.862 ± 0.47
E15Y	-0.261 ± 0.16
E15K	-0.268 ± 0.11
E15H	-0.004 ± 0.18
E15N	-0.184 ± 0.16
E15D	0.027 ± 0.18
E2L	-0.136 ± 0.074
E2Q	-0.05 ± 0.22
E2G	-0.078 ± 0.057
E2P	-0.306 ± 0.13
E2H	0.049 ± 0.16
A55E	-0.726 ± 0.13
A55L	-0.573 ± 0.068
A55W	-0.623 ± 0.086
A55F	-0.492 ± 0.19
A55V	0.034 ± 0.078
E32K	-0.044 ± 0.07
E32Y	-0.167 ± 0.053
E32C	-0.164 ± 0.048
E32S	-0.091 ± 0.039

Variant	abundance fitness
E47P	-0.752 ± 0.14
E47A	-0.248 ± 0.067
E47D	-0.347 ± 0.081
E47F	-0.198 ± 0.073
G12C	-0.329 ± 0.091
G12V	-1.1 ± 0.19
G12K	-0.224 ± 0.095
G12F	-0.687 ± 0.11
G12L	-0.865 ± 0.089
G12N	-0.646 ± 0.14
G12S	-0.113 ± 0.055
L43M	-0.219 ± 0.065
L43Q	-0.682 ± 0.13
I29V	-0.047 ± 0.054
I29N	-0.433 ± 0.12
I29H	-0.56 ± 0.26
I29E	-0.705 ± 0.11
I26D	-0.7 ± 0.38
I26T	-0.605 ± 0.082
I26V	-0.153 ± 0.062
I26M	-0.555 ± 0.14
I26P	-0.803 ± 0.14
I26C	-0.46 ± 0.19
I26L	-0.214 ± 0.056

Variant	abundance fitness
D52R	-0.043 ± 0.076
D52K	-0.02 ± 0.12
D52I	0.077 ± 0.46
D52E	0.043 ± 0.083
G34N	-0.426 ± 0.42
G34W	-0.712 ± 0.15
G34Y	-0.628 ± 0.19
G34E	-0.155 ± 0.15
G34M	-0.423 ± 0.13
G34T	-0.086 ± 0.095
S30V	-0.709 ± 0.096
S30N	-0.152 ± 0.15
S30R	-0.419 ± 0.065
S30Q	-0.36 ± 0.11
S30C	-0.365 ± 0.085
N14V	-0.421 ± 0.089
N14I	-0.202 ± 0.11
N14D	-0.107 ± 0.1
N14L	-0.4 ± 0.072
N14M	-0.172 ± 0.081
N14E	-0.159 ± 0.092
N14F	-0.336 ± 0.13
N14K	-0.033 ± 0.088
R40Y	-0.195 ± 0.12

Variant	abundance fitness
R40C	-0.332 ± 0.07
R40V	-0.513 ± 0.069
R40K	0.014 ± 0.066
R40H	-0.296 ± 0.09
F54T	-0.088 ± 0.076
F54C	0.084 ± 0.17
F54G	-0.32 ± 0.091
F54K	0.044 ± 0.081
F54H	-0.018 ± 0.1
R5D	-0.764 ± 0.16
R5S	-0.49 ± 0.068
R5N	-0.601 ± 0.085
R5W	-0.689 ± 0.21
R5A	-0.426 ± 0.15
T13D	-0.185 ± 0.085
T13G	-0.018 ± 0.064
T13F	-0.416 ± 0.1
T13C	0.038 ± 0.11
T13I	-0.183 ± 0.15
T13R	0.042 ± 0.053
T13W	-0.475 ± 0.093
T13H	-0.197 ± 0.12
E35A	0.055 ± 0.1
E35D	0.02 ± 0.12

Variant	abundance fitness
E35I	0.119 ± 0.12
E35S	0.034 ± 0.07
E35Y	0.055 ± 0.13
V56H	-0.317 ± 0.18
V56T	0.033 ± 0.11
V56I	-0.327 ± 0.17
V56M	-0.073 ± 0.1
E11S	-0.237 ± 0.074
E11W	-0.261 ± 0.078
E11V	-0.157 ± 0.09
E11C	-0.256 ± 0.096
L18G	-0.889 ± 0.12
L18H	-0.843 ± 0.2
L18C	-0.913 ± 0.32
L18S	-0.766 ± 0.089
L18R	-0.816 ± 0.087
G23C	-0.45 ± 0.093
G23A	-0.727 ± 0.13
A9P	-0.084 ± 0.079
A9L	-0.599 ± 0.057
A9K	-0.077 ± 0.056
A9S	0.029 ± 0.052
A9H	-0.076 ± 0.084
A9I	-0.542 ± 0.12

Variant	abundance fitness
A9T	-0.268 ± 0.059
A9Q	-0.096 ± 0.063
W39H	-0.623 ± 0.14
W39D	-0.941 ± 0.47
W39P	-0.724 ± 0.2
W39C	-0.48 ± 0.12
W39A	-0.328 ± 0.098
W39L	-0.532 ± 0.11
W39M	-0.278 ± 0.1
W39N	-0.734 ± 0.14
V49E	-0.674 ± 0.17
V49A	-0.319 ± 0.065
V49H	-0.482 ± 0.14
G37W	-1.08 ± 0.43
G37Q	-0.428 ± 0.2
G37F	-0.492 ± 0.25
G37H	-0.306 ± 0.17
F8W	-0.139 ± 0.051
F8V	0.004 ± 0.047
F8D	-0.311 ± 0.13
F8Y	-0.148 ± 0.093
L61C	0.275 ± 0.14
L61Q	0.113 ± 0.16
L61P	0.215 ± 0.086

Variant	abundance fitness
K46I	-0.309 ± 0.13
K46C	-0.056 ± 0.27
K46T	-0.273 ± 0.074
K46M	-0.235 ± 0.084
K46Q	-0.265 ± 0.086
K46R	0.012 ± 0.056
E24R	-0.782 ± 0.052
E24W	-0.827 ± 0.081
E24P	-0.694 ± 0.12
E24K	-0.697 ± 0.093
E24A	-0.312 ± 0.057
F20C	-0.793 ± 0.13
F20T	-0.854 ± 0.15
F20W	-0.887 ± 0.12
F20D	-0.523 ± 0.14
K1I	-0.245 ± 0.12
K1H	-0.489 ± 0.32
K1L	-0.296 ± 0.061
K1W	-0.543 ± 0.11
K1D	-0.364 ± 0.088
K1C	-0.629 ± 0.14
W38K	-0.034 ± 0.077
W38S	-0.675 ± 0.075
W38G	-0.559 ± 0.13

Variant	abundance fitness
W38A	-0.502 ± 0.076
W38D	-0.825 ± 0.18
W38R	-0.216 ± 0.062
W38C	-0.345 ± 0.072
W38M	-0.17 ± 0.11
W38Q	-0.3 ± 0.1
W38H	-0.349 ± 0.12
C4M	-0.23 ± 0.1
C4D	-1.04 ± 0.46
C4A	-0.591 ± 0.1
C4S	-0.791 ± 0.095
C4I	-0.113 ± 0.12
C4K	-0.64 ± 0.15
C4W	-0.301 ± 0.068
C4H	-1.07 ± 0.3
D16Y	-0.072 ± 0.092
D16C	-0.128 ± 0.078
D16N	0.014 ± 0.086
A36G	-0.235 ± 0.051
A36F	-0.158 ± 0.14
A36V	-0.03 ± 0.064
A36T	-0.044 ± 0.066
T33V	-0.129 ± 0.064
T33E	-0.471 ± 0.085

Variant	abundance fitness
T33C	-0.163 ± 0.11
T33H	-0.209 ± 0.12
T33G	-0.076 ± 0.056
T33P	-0.242 ± 0.083
Y3V	-0.537 ± 0.11
Y3M	-0.372 ± 0.081
T19I	-0.693 ± 0.093
T19H	-0.252 ± 0.082
T19G	-0.431 ± 0.13
T19D	-0.499 ± 0.1
T19A	-0.249 ± 0.08
T19Y	-0.422 ± 0.078
T19R	-0.283 ± 0.07
G48L	-0.753 ± 0.061
G48S	-0.843 ± 0.071
G48Q	-0.93 ± 0.16
G48W	-0.949 ± 0.074
G48P	-0.932 ± 0.12
G48T	-1.07 ± 0.15
G48R	-0.856 ± 0.059
G48M	-0.947 ± 0.15
G48H	-0.749 ± 0.13
G48K	-0.746 ± 0.17
L7E	-0.457 ± 0.1

Variant	abundance fitness
L7W	-0.539 ± 0.098
L7S	-0.107 ± 0.056
L7T	-0.017 ± 0.057
L7C	-0.336 ± 0.098
T6Q	-0.68 ± 0.14
T6Y	-0.621 ± 0.12
T6M	-0.474 ± 0.22
T6F	-0.889 ± 0.22
T6D	-0.963 ± 0.45
T6C	-0.614 ± 0.14
T6I	-0.5 ± 0.3
T6L	-0.88 ± 0.12
H27E	0.093 ± 0.082
H27Y	-0.126 ± 0.1
H27S	-0.083 ± 0.069
H27T	0.04 ± 0.072
H27V	-0.03 ± 0.07
H27F	-0.26 ± 0.2
G41W	-1.14 ± 0.29
G41L	-0.747 ± 0.07
G41F	-0.949 ± 0.23
G41I	-1.08 ± 0.36
E60P	-0.015 ± 0.081
E60A	-0.05 ± 0.088

Variant	abundance fitness
E60Q	-0.115 ± 0.14
E60N	-0.227 ± 0.21
E60W	-0.258 ± 0.14
E60T	-0.11 ± 0.18
E60F	-0.213 ± 0.11
I58Y	-0.249 ± 0.09
I58A	-0.151 ± 0.071
I58L	-0.026 ± 0.052
I58H	-0.234 ± 0.09
I58V	0.005 ± 0.055
I58R	-0.417 ± 0.051
I58P	-0.431 ± 0.11
K21N	-0.019 ± 0.14
K21A	-0.023 ± 0.057
K21I	-0.265 ± 0.081
K21C	-0.16 ± 0.14
K21H	-0.107 ± 0.3
K21P	-0.242 ± 0.09
N44M	-0.172 ± 0.23
N44I	-0.787 ± 0.11
N44C	-0.273 ± 0.065
N44R	-0.073 ± 0.059
N44H	-0.03 ± 0.058
N44A	-0.152 ± 0.062

Variant	abundance fitness
G45W	-0.829 ± 0.22
G45N	-0.359 ± 0.21
G45F	-0.408 ± 0.18
G45M	-0.695 ± 0.12
G45H	-0.343 ± 0.19
G45T	-0.746 ± 0.13
G45A	-0.437 ± 0.071
G45K	-0.438 ± 0.088
G45P	-0.784 ± 0.11
L28T	-0.441 ± 0.086
L28E	-0.738 ± 0.16
L28A	-0.812 ± 0.2
L28N	-0.59 ± 0.11
L28S	-0.712 ± 0.067
L28D	-0.82 ± 0.26
L28I	-0.068 ± 0.11
L28R	-0.706 ± 0.064
Y10L	-0.744 ± 0.14
Y10C	-0.659 ± 0.14
Y10H	-0.373 ± 0.17
Y10G	-0.544 ± 0.074
Y10F	-0.182 ± 0.1

Reference: the Human Domainome abundance scans (Beltran et al. 2025)
